The text below walks through data of publication PMC3779284.

Where two headings read alike, the source gives them in different places.

Test [1] deals with Calmodulin fluorescently labelled with Alexa Fluor 488 (UniProt P0DP23). The test can be described thus: AUC.
The target is the same in test [2]. Kind of test: AUC. This is another data set of the same source.

In test [1], nNOSred R753A (domain or fragment) displayed a Kd of 468 nM and a percent free calmodulin at 1:0.5 CaM:nNOSred of 64.6%.
Take “nNOSred wt (rat neuronal nitric oxide synthase reductase domain, wild type) (domain or fragment)”: the Kd in test [1] stood at 167 nM. In addition, the percent free calmodulin at 1:0.5 CaM:nNOSred in test [1] amounted to 30.9%; in test [2], 40%.

The term Kd denotes the concentration at which binding is half-saturated. Higher therefore signals lower affinity.
